Measurements from patent publication US20250084126A1, “PEPTIDE AND COMPOSITION” (OSAKA UNIVERSITY, priority 2021, published 2025).

Experiments:
[1] = tested on: exposed pulp of rat maxillary first molars; assay: Direct pulp capping experiment using S100-A7 and S100-A7 reacted with MMP20; type: in vivo; details: rat molar, gelatin sponge with 20 μl of 1 μg/ml in PBS, 4 weeks after pulp capping, n=3
Procedure: Eight-week-old male Wistar rats were injected intraperitoneally with pentobarbital sodium (SomnoPentyl (Trade Mark), Kyoritsu Seiyaku Corporation, Tokyo) (30 mg/kg) as general anesthesia, and carprofen (Rimadyl®, Pfizer, USA) (3 mg/kg) was administered for pain relief. The tooth to be treated was isolated by rubber dam dry field technique, and a surface and surrounding tissue of the tooth were cleaned with an alcohol-soaked cotton ball, and then a cavity was formed using the following method based on the report by Komichi et al. [Non Patent Literature 1]. […] Maxillas, including the test teeth, were then resected and soft tissues were removed, and evaluated by the following methods. […]
Image analysis using the micro-CT (R-mCT2™M, Rigaku Corporation, Tokyo) was performed for quantitative evaluation of the formed tertiary dentin in the samples after the direct pulp capping. […] A CT value equivalent to that of the primary dentin was set as a threshold for extracting the tertiary dentin, and the area of the newly formed tertiary dentin was calculated from a binarized image. The area of the newly formed tertiary dentin was measured in each section, and the volume of the newly formed tertiary dentin was calculated by summing all of the measurements. […]

[2] = tested on: exposed pulp; details: rat in vivo, reported in Non Patent Literature 1; cited from earlier work
[3] = tested on: pulp cells; details: reported in Non Patent Literature 1; cited from earlier work

B1: S100-A7: Protein S100-A7 (PROSPEC, Israel), human-derived Protein S100 (protein, UniProt P31151 2-101, looked up)
Protein S100-A7: SNTQAERSIIGMIDMFHKYTRRDDKIEKPSLLTMMKENFPNFLSACDKKGTNYLADVFEKKDKNEDKKIDFSEFLSLLGDIATDYHKQSHGAAPCSGGSQ
tertiary dentin formation (micro-CT analysis) [1]: completely covering the exposed region of pulp | tertiary dentin induction in the direct pulp capping experiment [2]: completely covers the surface of the exposed pulp | effect on pulp cells in vitro [3]: activates proliferation, differentiation, and mineralization abilities
